Measurements published in publication PMC9931023 (Journal of Food and Drug Analysis, 2021).

Biological target: p27 (Kip1), endogenous in breast tissue (human (endogenous in breast tissue …, UniProt P46527 1-198))
Assay: FRET or BRET

Sequence of p27 (Kip1), endogenous in breast tissue (human (P46527 whole entry): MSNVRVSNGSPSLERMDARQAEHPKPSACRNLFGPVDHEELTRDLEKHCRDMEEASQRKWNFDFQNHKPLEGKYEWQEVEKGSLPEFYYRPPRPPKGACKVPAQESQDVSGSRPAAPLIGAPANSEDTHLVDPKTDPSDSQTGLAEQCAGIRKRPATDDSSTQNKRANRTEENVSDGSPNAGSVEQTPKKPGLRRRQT

- FRET activity (fold): 25.2 fold
B1: salt-induced kinase-3 (SIK3), endogenous in breast tissue (enzyme, UniProt Q9Y2K2-5 1-1321, looked up)
chain: MAAAAASGAGGAAGAGTGGAGPAGRLLPPPAPGSPAAPAAVSPAAGQPRPPAPASRGPMPARIGYYEIDRTIGKGNFAVVKRATHLVTKAKVAIKIIDKTQLDEENLKKIFREVQIMKMLCHPHIIRLYQVMETERMIYLVTEYASGGEIFDHLVAHGRMAEKEARRKFKQIVTAVYFCHCRNIVHRDLKAENLLLDANLNIKIADFGFSNLFTPGQLLKTWCGSPPYAAPELFEGKEYDGPKVDIWSLGVVLYVLVCGALPFDGSTLQNLRARVLSGKFRIPFFMSTECEHLIRHMLVLDPNKRLSMEQICKHKWMKLGDADPNFDRLIAECQQLKEERQVDPLNEDVLLAMEDMGLDKEQTLQSLRSDAYDHYSAIYSLLCDRHKRHKTLRLGALPSMPRALAFQAPVNIQAEQAGTAMNISVPQVQLINPENQIVEPDGTLNLDSDEGEEPSPEALVRYLSMRRHTVGVADPRTEVMEDLQKLLPGFPGVNPQAPFLQVAPNVNFMHNLLPMQNLQPTGQLEYKEQSLLQPPTLQLLNGMGPLGRRASDGGANIQLHAQQLLKRPRGPSPLVTMTPAVPAVTPVDEESSDGEPDQEAVQSSTYKDSNTLHLPTERFSPVRRFSDGAASIQAFKAHLEKMGNNSSIKQLQQECEQLQKMYGGQIDERTLEKTQQQHMLYQQEQHHQILQQQIQDSICPPQPSPPLQAACENQPALLTHQLQRLRIQPSSPPPNHPNNHLFRQPSNSPPPMSSAMIQPHGAASSSQFQGLPSRSAIFQQQPENCSSPPNVALTCLGMQQPAQSQQVTIQVQEPVDMLSNMPGTAAGSSGRGISISPSAGQMQMQHRTNLMATLSYGHRPLSKQLSADSAEAHSLNVNRFSPANYDQAHLHPHLFSDQSRGSPSSYSPSTGVGFSPTQALKVPPLDQFPTFPPSAHQQPPHYTTSALQQALLSPTPPDYTRHQQVPHILQGLLSPRHSLTGHSDIRLPPTEFAQLIKRQQQQRQQQQQQQQQQEYQELFRHMNQGDAGSLAPSLGGQSMTERQALSYQNADSYHHHTSPQHLLQIRAQECVSQASSPTPPHGYAHQPALMHSESMEEDCSCEGAKDGFQDSKSSSTLTKGCHDSPLLLSTGGPGDPESLLGTVSHAQELGIHPYGHQPTAAFSKNKVPSREPVIGNCMDRSSPGQAVELPDHNGLGYPARPSVHEHHRPRALQRHHTIQNSDDAYVQLDNLPGMSLVAGKALSSARMSDAVLSQSSLMGSQQFQDGENEECGASLGGHEHPDLSDGSQHLNSSCYPSTCITDILLSYKHPEVSFSMEQAGV
